The supplement of paper PMC9170038

Key:
MS2 coat protein [1] = assay: apparent KD of MS2 coat protein; designed switch direction (-1 OFF switch, 1 ON switch): 1; higher = weaker reporter binding
Method in brief: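 An oligonucleotide input, 200 uM small-molecule ligand, or no input was present during titration of SNAP-549-labelled MS2 coat protein, which was doubled from 0.7 or 1.5 nM to 3 µM. Designed RNA switches had been transcribed on Illumina chips by stalled E. coli RNA polymerase. Apparent KD per design is the median over clusters of curves fitted to normalised cluster fluorescence.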

MS2 coat protein [2] = assay: apparent KD of MS2 coat protein; higher = weaker reporter binding; settings: Eterna round: R107
Method in brief: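 The buffer was 100 mM Tris-HCl pH 7.5 with 80 mM KCl and 4 mM MgCl2, used without or with constant ligand. In it, RNA switches transcribed on-chip from Illumina sequencing clusters were titrated with SNAP-549-labelled MS2 coat protein in twofold steps from 0.7 or 1.5 nM to 3 µM. Apparent KD for each design is the median of its normalised cluster binding-curve fits.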

[3] = input ligand: microRNA oligo, concentration not stated
[4] = Eterna round: R95, input ligand: FMN 200 uM
[5] = Eterna round: R95, input ligand: microRNA oligo, concentration not stated
[6] = Eterna round: R95, input ligand: none
[7] = input ligand: theophylline 20 uM
[8] = input ligand: theophylline 2 mM
[9] = input ligand: tryptophan 2.4 mM

Sequence | apparent KD of MS2 coat protein (MS2 coat protein [2]; input ligand: arginine 13.2 mM) [nM] | apparent KD of MS2 coat protein (MS2 coat protein [2]; [7]) [nM] | apparent KD of MS2 coat protein (MS2 coat protein [2]; [8]) [nM] | apparent KD of MS2 coat protein (MS2 coat protein [2]; [9]) [nM] | other results
AUAUGAGGAGCAGGAUAUGCGAAGAAGAAAGAAGUAGAAGGGCUCAUGGGACGACAUGAGGAUCACCCAUGUACUUCCCGAUGA [AK SSNG1-V2-7] (Eterna round: R96, puzzle: Same State NG 1) | – | – | – | – | apparent KD of MS2 coat protein (MS2 coat protein [1]; input ligand: FMN 200 uM): 24.6 nM; apparent KD of MS2 coat protein (MS2 coat protein [1]; [3]): 26.6 nM; apparent KD of MS2 coat protein (MS2 coat protein [1]; input ligand: none): 37.7 nM
AGUGGUGGUGCAGGAUAUGCCUCAAAAGCAUGGGUAGAAGGGCAAUACAAAGAAACUCUGACAUGAGGAUCACCCAUGUAGCAA [Eternabot solution 43] (Eterna round: R96, puzzle: Same State NG 1) | – | – | – | – | apparent KD of MS2 coat protein (MS2 coat protein [1]; input ligand: FMN 200 uM): 449 nM; apparent KD of MS2 coat protein (MS2 coat protein [1]; [3]): 241 nM; apparent KD of MS2 coat protein (MS2 coat protein [1]; input ligand: none): 395 nM
GAGAGAUGAUUAGGAUAUUCGGUGAUAAUGAUAGAAGAAGGAAUUGACAUGAGGAUCACCCAUGUGGGAAUAAUCCAGAGAGAG [Parity 21 - Jieux - Same State NG 1] (Eterna round: R96, puzzle: Same State NG 1) | – | – | – | – | apparent KD of MS2 coat protein (MS2 coat protein [1]; input ligand: FMN 200 uM): 148 nM; apparent KD of MS2 coat protein (MS2 coat protein [1]; [3]): 77.5 nM; apparent KD of MS2 coat protein (MS2 coat protein [1]; input ligand: none): 161 nM
AGUCCAGCCAGAGCUGGACAAAAGCAUGUACAUGAGGAUCACCCAUGUUCAUGUACAAGCUUUUUGCUCGUCAAAAG [Mat - hsa-mir-208a - Mod of JL - 69] (puzzle: Sensor for hsa-mir-208a) | – | – | – | – | apparent KD of MS2 coat protein (MS2 coat protein [1]; [4]): 304 nM; apparent KD of MS2 coat protein (MS2 coat protein [1]; [5]): 17.7 nM; apparent KD of MS2 coat protein (MS2 coat protein [1]; [6]): 233 nM
AGCGAGAUAGGCAAGGAUAUGCUGGGUUUCACAUGAGGAUCACCCAUGUCAUAGGUAAUGUCCGAGCAGAAGGUGCAUUCUCUUU [ak bound state multiloop solution] (puzzle: Same State 2) | – | – | – | – | apparent KD of MS2 coat protein (MS2 coat protein [1]; [5]): 172 nM
ACUAGAUCGAAAGAUCUAGAAAACGAGUAACAUGAGGAUCACCCAUGUUCAUGUUGCUCGUCUUAAGCCGAAAGGCG [JL ALT 15] (Eterna round: R96, puzzle: Sensor for hsa-mir-208a) | – | – | – | – | apparent KD of MS2 coat protein (MS2 coat protein [1]; input ligand: FMN 200 uM): 71.5 nM; apparent KD of MS2 coat protein (MS2 coat protein [1]; [3]): 38 nM; apparent KD of MS2 coat protein (MS2 coat protein [1]; input ligand: none): 22.8 nM
AGGCAAGCUUUUUGCUGGUAUGGAGGAUAACAUGAGGAUCACCCAUGUAUUGGAGGUGUUGAAGAUUUGAGAAAGAA [JR_SHM208A_Sub005] (puzzle: Sensor for hsa-mir-208a) | – | – | – | – | apparent KD of MS2 coat protein (MS2 coat protein [1]; [4]): 118 nM; apparent KD of MS2 coat protein (MS2 coat protein [1]; [5]): 149 nM; apparent KD of MS2 coat protein (MS2 coat protein [1]; [6]): 139 nM
GUGCAACCGUGUGAGGAUAUCGGUGAAUAGACAUGAGGAUCACCCAUGUCCGAAGCUCGGUUCUCCGAGAAGGCGCACAGUUGCA [Same State 2 - Mod of Erisin v.5] (puzzle: Same State 2) | – | – | – | – | apparent KD of MS2 coat protein (MS2 coat protein [1]; [4]): 42.8 nM; apparent KD of MS2 coat protein (MS2 coat protein [1]; [5]): 41.5 nM; apparent KD of MS2 coat protein (MS2 coat protein [1]; [6]): 52.4 nM
UGUUGUAUUACAGGAUAUCUAUGUUUUUUAUUUAGAGAAGGGUAUUCACAUGAGGAUCACCCAUGUAUAUACGAGGAAGUUGUG [JMF's solution 57] (Eterna round: R96, puzzle: Same State NG 1) | – | – | – | – | apparent KD of MS2 coat protein (MS2 coat protein [1]; [3]): 40.4 nM
GAGCCAGUCCGAGGAUAUUCGUAGUAACACAUGAGGAUCACCCAUGUGGGCUCAGAAGAGCCCUUGGAGAAGGCGGGCUGGCUC [SS-NG2-LRO19] (Eterna round: R96, puzzle: Same State NG 2) | – | – | – | – | apparent KD of MS2 coat protein (MS2 coat protein [1]; input ligand: FMN 200 uM): 7.41 nM; apparent KD of MS2 coat protein (MS2 coat protein [1]; [3]): 9.15 nM; apparent KD of MS2 coat protein (MS2 coat protein [1]; input ligand: none): 12.4 nM
GGACGUCAAUCUCCUACUUAAACAUGAGGAUCACCCAUGUCACAGGAUAUGAGUCCGAUUAGGACUCAGAAGGGUGAGACGUCC [Fiskers NG3ss - 50] (Eterna round: R96, puzzle: Same State NG 3) | – | – | – | – | apparent KD of MS2 coat protein (MS2 coat protein [1]; input ligand: FMN 200 uM): 18.8 nM; apparent KD of MS2 coat protein (MS2 coat protein [1]; [3]): 15.2 nM; apparent KD of MS2 coat protein (MS2 coat protein [1]; input ligand: none): 16 nM
GAGUAGUACGGAGGAUAUGGGCAGAACAAGACACCAGAAGGCCGACAUGAGGAUGCUGGACAUGAGGAUCACCCAUGUACCUGA [Same State 1 S3] (Eterna round: R96, puzzle: Same State NG 1) | – | – | – | – | apparent KD of MS2 coat protein (MS2 coat protein [1]; input ligand: FMN 200 uM): 22.8 nM; apparent KD of MS2 coat protein (MS2 coat protein [1]; [3]): 92.6 nM; apparent KD of MS2 coat protein (MS2 coat protein [1]; input ligand: none): 85.4 nM
GGUCCAGCCUGAGCUGGACAAAAGCAUGUACAUGAGGAUCACCCAUGUCAUGUACAAGCUUUUUGCUCGUCUUAAUA [Mat - hsa-mir-208a - 89] (puzzle: Sensor for hsa-mir-208a) | – | – | – | – | apparent KD of MS2 coat protein (MS2 coat protein [1]; [4]): 583 nM; apparent KD of MS2 coat protein (MS2 coat protein [1]; [5]): 15 nM; apparent KD of MS2 coat protein (MS2 coat protein [1]; [6]): 548 nM
GGUCCAGCCUGAGCUGGACAAAAGCAUGUACAUGAGGAUCACCCAUGUUCAUGUACAAGCUUUUUGCUCGUCUUAUU [salish99_208a_r3_049] (puzzle: Sensor for hsa-mir-208a) | – | – | – | – | apparent KD of MS2 coat protein (MS2 coat protein [1]; [4]): 560 nM; apparent KD of MS2 coat protein (MS2 coat protein [1]; [5]): 15.8 nM; apparent KD of MS2 coat protein (MS2 coat protein [1]; [6]): 687 nM
UGUAUGGGAACAUGAGGAUCACCCAUGUGGCGAGGACCGGUACGGCCGCCACUCGAGCAGCAAGCGUGUAUGACGCUGCUGCAUG [ss-trypA-0mod] | 225 | 377 | 324 | 136 | apparent KD of MS2 coat protein (MS2 coat protein [2]; input ligand: none): 312 nM
AUAUGAAAGAGUGAUACCAGACUACAUGAGGAUCACCCAUGUGACAUUUAAAUAUCAUUUGUCCCUUGGCAGCACAUUAAGUACA [JR_Nu_ExcTheophyB_Sub021] | 35.7 | 46.9 | – | 43 | –

Sequence | apparent KD of MS2 coat protein (MS2 coat protein [2]; input ligand: arginine 13.2 mM) [nM] | apparent KD of MS2 coat protein (MS2 coat protein [2]; [7]) [nM] | apparent KD of MS2 coat protein (MS2 coat protein [2]; [8]) [nM] | apparent KD of MS2 coat protein (MS2 coat protein [2]; [9]) [nM] | other results
GCACCAGGUACGGAUACCAGCUAUAGGCCCAAUGGGCGACAUGAGGAUCACCCAUGUGAUGGCCCUUGGCAGCUGUACCUGGUGC [SSThB NP+V+V2 #9] | 148 | 193 | – | 218 | –
GGGCUUGUGGUGCGGCGUGUUCCGCUCCGUCGAGGACCGGUACGGCCGCCACUCGACAUGAGGAUCACCCAUGUGCGAGCGCGCG [#1 Exclusion - Tryptophan A Attempt #7 (HarryS)] | 11.4 | 16.1 | 15.4 | 25.1 | apparent KD of MS2 coat protein (MS2 coat protein [2]; input ligand: none): 17.3 nM
UGUCAAUCGCCGGAUACCAGCCUAACUGAAGGAAAUCUAAACAUGAGGAUCACCCAUGUAGGCCCUUGGCAGCCGAGUAAGUACA [theeternabot_exclusion_MS2_Theo_B_15] | 33.9 | 65.4 | – | 35.7 | –
AGCAGUACAACAGAUACCAGACUUUUAAUGCCUCUAAUUACAUGAGGAUCACCCAUGUUUGUCCCUUGGCAGCUGUUGUACUGCA [JR_ExcTheophyB_Sub010] | 72.4 | 200 | – | 124 | –
CAUUGUUAGACGGCCGCCACUUUUGGUUCGGAACGAUCGAUUGGACAUGAGGAUCACCCAUGUGGAAGGACCGGGUCUAAUCAAA [theeternabot_sameState_MS2_Trp_B_20] | 83 | 328 | 265 | 134 | apparent KD of MS2 coat protein (MS2 coat protein [2]; input ligand: none): 165 nM
GACGGUACGUCGGCAAAGCCGAUGUGCCAGCGAGGACCGGUACGGCCGCCACUCGUACAUGAGGAUCACCCAUGUCCGGUCCGUC [Omei Trp SS A C v3] | 51.7 | 108 | 167 | 129 | apparent KD of MS2 coat protein (MS2 coat protein [2]; input ligand: none): 122 nM
CACAUGAGGAUCACCCAUGUCUGAACUGAAGGAGCGCUAAACAAGGCAGGUAGGUCGCGGAAUCCUGUGUGCAUAUGCACACGGG [9.W] | 30.6 | 27 | 26.1 | 21.5 | apparent KD of MS2 coat protein (MS2 coat protein [2]; input ligand: none): 18 nM
AGCCAUGGAAACAUGGCGGCGGCUUGAGCGCGAGGACCGGUACGGCCGCCACUCGGGCAACAUGAGGAUCACCCAUGUUCCUCAU [ETA NP+V+V2 #19] | 64 | 104 | 75.7 | 190 | apparent KD of MS2 coat protein (MS2 coat protein [2]; input ligand: none): 113 nM
AAUAAUAGGUGAUCUUGAGUCGUACCGUAACGAGGACCGGUACGGCCGCCACUCGAACAUGAGGAUCACCCAUGUAUGUAUGAUA [whbob_SS_trypto A_f6] | 48.6 | 128 | 276 | – | –
ACGACGCAUACAGAUACCAGUAGAACAUGAGGAUCACCCAUGUCUGAGGCGCUCCGCCACUGCCCUUGGCAGCUGUAUGCGUCAG [SSTheo B #11] | 9.42 | 12.6 | – | 9.81 | –
UAAAUAAUCUGGGUGUAGGUAAUAACAGAUACCAGCCAGAUAACUGGCCCUUGGCAGCUGAAAACAUGAGGAUCACCCAUGUAAA [Mat - Same State Theophlline A - Mod of Eli - D19] | 58.3 | 129 | 84.6 | 57.4 | apparent KD of MS2 coat protein (MS2 coat protein [2]; input ligand: none): 80.6 nM
ACAUGAGGAUCACCCAUGUAAGGUCUUGAUACCAGACGAGAAGUAGUCCCUUGGCAGCAAAUACGUGAGGGUCACACAUGUGUAA [edsmullin] | 21.6 | 37.7 | – | 25.9 | –
AAUAAACAUGAGGAUCACCCAUGUAGGGUGCGAGGACCGGUACGGCCGCCACUCGGGUGAAAACAUGAAAAUCACCCAUGUAAAA [Mat - Exclusion - Trytophan A - D24] | 113 | 192 | 206 | 232 | apparent KD of MS2 coat protein (MS2 coat protein [2]; input ligand: none): 125 nM
CACUAUGAGGUCGAUACCAGUACUGAGUUGUACAUGAGGAUCACCCAUGUAAAUGUUCGCUACCCUUGGCAGCGAUAACAUUGCA [theeternabot_sameState_MS2_Theo_B_34] | 73.8 | 331 | – | 246 | –
ACUCGACCAUCAGCCAUUUGUGAAUCACGGCGAGGACCGGUACGGCCGCCACUCGACAUGAGGAUCACCCAUGUAAGACCGGUGU [vmullin3] | 24 | 37.8 | 39.6 | – | –
AGCGAUAUGCAUGAUACCAGCUACAUGAGGAUCACCCAUGUGCGUCAGAAAUGACUGUGUAGCCCUUGGCAGCAUAAAGCAUGUA [Exclusion - Theophylline B (Freestyle 10)] | 32.3 | 50.7 | – | 38.5 | –
